Results: patent US20230167165A1

Target: monomeric human protein of therapeutic interest (antigen of Examples 1-7) (human)
Assay: competition flow cytometry; control scFv-Fc supernatant preincubated 15 min with 10 nM labeled antigen, then yeast displaying parental scFv added

Q2 (% of cells displaying the parental scFv that bind antigen in presence of the competing scFv-Fc): 69.9%
Substance: unrelated scFv-Fc (control) (Fc fusion)
